pIC50, pKd: −log10 of the molar value.
Assays:
HLA-A*02:02 = assay: IEDB peptide-MHC binding, purified MHC/competitive/radioactivity; filed as Kd, often an IC50 or EC50 that approximates it; ≥ and ≤ were set here for values at or beyond the usual limits of such assays
HLA-A*02:03 [1] = assay: as above
HLA-A*02:06 = assay: as above
HLA-A*68:02 = assay: as above
HLA-A*26:01 = assay: as above; details: source organism: Dengue virus 2 Jamaica/1409/1983
HLA-A*30:01 = assay: as above; details: source organism: Vaccinia virus WR
HLA-A*32:01 = assay: as above; details: source organism: Vaccinia virus WR
HLA-B*08:01 = assay: as above; details: source organism: Vaccinia virus WR
HLA-B*15:01 [2] = assay: as above; details: source organism: Vaccinia virus WR
HLA-B*15:03 = assay: as above; details: source organism: Vaccinia virus WR
HLA-A*02:01 [3] = assay: IEDB peptide-MHC binding, purified MHC/competitive/fluorescence; ≥ and ≤ were set here for values at or beyond the usual limits of such assays; details: source organism: Vaccinia virus Copenhagen
HLA-A*03:01 [4] = assay: as above
HLA-A*11:01 [5] = assay: as above
HLA-A*31:01 [6] = assay: IEDB peptide-MHC binding, purified MHC/competitive/radioactivity; filed as Kd, often an IC50 or EC50 that approximates it; ≥ and ≤ were set here for values at or beyond the usual limits of such assays; details: source organism: Vaccinia virus WR
HLA-A*33:01 = assay: as above; details: source organism: Vaccinia virus WR
HLA-A*68:01 = assay: as above; details: source organism: Vaccinia virus WR
HLA-A*02:01 [7] = assay: as above
HLA-B*07:02 [8] = assay: as above; details: source organism: Vaccinia virus WR
HLA-B*35:01 = assay: as above; details: source organism: Vaccinia virus WR
HLA-B*51:01 = assay: as above
HLA-B*53:01 = assay: as above; details: source organism: Vaccinia virus WR
HLA-B*54:01 = assay: as above; details: source organism: Vaccinia virus WR
HLA-A*01:01 = assay: IEDB peptide-MHC binding, purified MHC/direct/fluorescence; filed as Kd, often an IC50 or EC50 that approximates it; ≥ and ≤ were set here for values at or beyond the usual limits of such assays; details: source organism: Influenza A virus (A/Duck/Shantou/1881/00(H9N2))
HLA-A*02:01 [9] = assay: as above; details: source organism: Influenza A virus (A/Duck/Shantou/1881/00(H9N2))
HLA-A*02:03 [10] = assay: as above; details: source organism: Influenza A virus(A/swine/Henan/8/2004(H9N2))
HLA-A*02:11 = assay: as above; details: source organism: Influenza A virus(A/swine/Henan/8/2004(H9N2))
HLA-A*02:12 = assay: as above; details: source organism: Influenza A virus(A/swine/Henan/8/2004(H9N2))
HLA-A*02:19 = assay: as above; details: source organism: Influenza A virus(A/swine/Henan/8/2004(H9N2))
HLA-A*03:01 [11] = assay: as above; details: source organism: Influenza A virus (A/Duck/Shantou/1881/00(H9N2))
HLA-A*11:01 [12] = assay: as above; details: source organism: Influenza A virus (A/Duck/Shantou/1881/00(H9N2))
HLA-A*24:03 = assay: as above; details: source organism: Influenza A virus (A/Duck/Shantou/1881/00(H9N2))
HLA-A*31:01 [13] = assay: as above; details: source organism: Influenza A virus (A/Duck/Shantou/1881/00(H9N2))
HLA-B*07:02 [14] = assay: as above; details: source organism: Influenza A virus (A/Duck/Shantou/1881/00(H9N2))
HLA-B*15:01 [15] = assay: as above; details: source organism: Influenza A virus (A/Duck/Shantou/1881/00(H9N2))
HLA-B*27:05 = assay: as above; details: source organism: Influenza A virus (A/Duck/Shantou/1881/00(H9N2))
HLA-B*40:01 = assay: as above; details: source organism: Influenza A virus (A/Duck/Shantou/1881/00(H9N2))
HLA-B*58:01 = assay: as above; details: source organism: Influenza A virus (A/Duck/Shantou/1881/00(H9N2))
HLA-A*24:02 = assay: IEDB peptide-MHC binding, purified MHC/competitive/fluorescence; ≥ and ≤ were set here for values at or beyond the usual limits of such assays; details: source organism: Sudan ebolavirus
[16] = source organism: Mammarenavirus brazilense
[17] = source organism: Dengue virus 2 Jamaica/1409/1983
[18] = source organism: Vaccinia virus Copenhagen
[19] = source organism: Trypanosoma cruzi
[20] = source organism: Zaire ebolavirus
[21] = source organism: Sudan ebolavirus
[22] = source organism: Vaccinia virus WR

AINIALIAV
pKd (HLA-A*02:02; [16]): 6.12 | pKd (HLA-A*02:03 [1]; [16]): 7.33 | pKd (HLA-A*02:06; [16]): 6.17 | pKd (HLA-A*68:02; [16]): 5.89

ALKTELEDTL
pKd (HLA-A*68:02; source organism: Homo sapiens): ≤ 4.22

EIVDLMCHA
pKd (HLA-A*26:01): 5.80 | pKd (HLA-A*68:02; [17]): 7.36

ETVSEESNV
pKd (HLA-A*68:02; source organism: Homo sapiens): 7.36

FFKQTFGSL
pKd (HLA-A*30:01): 6.30 | pKd (HLA-A*32:01): ≤ 4.25 | pKd (HLA-B*08:01): 9.13 | pKd (HLA-B*15:01 [2]): 5.81 | pKd (HLA-B*15:03): 5.97

FIAFLRFLA
pKd (HLA-A*68:02; source organism: Dengue virus 1 Brazil/97-11/1997): ≥ 9.00

FIMLEGETK
pIC50 (HLA-A*02:01 [3]): 4.51 | pIC50 (HLA-A*03:01 [4]; [18]): ≤ 3.94 | pIC50 (HLA-A*11:01 [5]; [18]): 5.31 | pKd (HLA-A*31:01 [6]): 4.75 | pKd (HLA-A*33:01): 5.36 | pKd (HLA-A*68:01): 7.55

FVYVPELSF
pKd (HLA-B*15:01 [2]): 9.02 | pKd (HLA-B*15:03): 6.69

GERYYFAYI
pKd (HLA-A*30:01): 5.18 | pKd (HLA-A*32:01): 4.71 | pKd (HLA-B*08:01): 8.16 | pKd (HLA-B*15:01 [2]): 6.17 | pKd (HLA-B*15:03): 6.62

GLLLLLLLLG
pKd (HLA-A*02:01 [7]; [19]): 6.77 | pKd (HLA-A*02:02; [19]): 6.34 | pKd (HLA-A*02:03 [1]; [19]): 6.48 | pKd (HLA-A*02:06; [19]): 6.38 | pKd (HLA-A*68:02; [19]): 5.75

HGFRFEVKK
pIC50 (HLA-A*03:01 [4]; [20]): 5.66 | pIC50 (HLA-A*11:01 [5]; [20]): 7.06

ILHHHRNVF
pKd (HLA-B*08:01): 7.89 | pKd (HLA-B*15:03): 8.88

IMVSEHFSL
pKd (HLA-B*15:03): 8.26

ITKGRISDR
pIC50 (HLA-A*03:01 [4]; [21]): 4.18 | pIC50 (HLA-A*11:01 [5]; [21]): ≤ 3.87

KMAADRGAF
pKd (HLA-B*15:03): 8.60

KPNSFTFSF
pKd (HLA-A*32:01): 4.86 | pKd (HLA-B*15:03): 6.60

KTIYAVDSF
pKd (HLA-A*30:01): 5.86 | pKd (HLA-A*32:01): 8.17 | pKd (HLA-B*08:01): ≤ 4.50 | pKd (HLA-B*15:01 [2]): 8.39 | pKd (HLA-B*15:03): 6.49

LLTACTIFYI
pKd (HLA-A*02:02; [22]): 8.57 | pKd (HLA-A*02:03 [1]; [22]): 7.93 | pKd (HLA-A*02:06; [22]): 7.25 | pKd (HLA-A*33:01): 5.13 | pKd (HLA-A*68:02; [22]): 6.64 | pKd (HLA-B*07:02 [8]): ≤ 4.16 | pKd (HLA-B*35:01): ≤ 4.16 | pKd (HLA-B*51:01; [22]): ≤ 4.16 | pKd (HLA-B*53:01): ≤ 4.66 | pKd (HLA-B*54:01): ≤ 4.56

MAISGDDCV
pKd (HLA-A*68:02; [17]): 7.18 | pKd (HLA-B*51:01; [17]): 4.76

MILVPLITV
pKd (HLA-A*02:01 [7]; source organism: Variola virus): 7.84 | pKd (HLA-A*02:02; source organism: Variola virus): 6.86 | pKd (HLA-A*02:03 [1]; source organism: Variola virus): 7.53 | pKd (HLA-A*02:06; source organism: Variola virus): 8.59 | pKd (HLA-A*68:02; source organism: Variola virus): 9.56

MIRILIGFLV
pKd (HLA-A*68:02; source organism: Dengue virus 4 Dominica/814669/1981): 6.53

NMFNISFRF
pKd (HLA-A*30:01): 7.57 | pKd (HLA-A*32:01): 8.44 | pKd (HLA-B*08:01): 5.81 | pKd (HLA-B*15:01 [2]): 7.36 | pKd (HLA-B*15:03): 7.73

NTFVLKKEV
pKd (HLA-A*68:02; source organism: Dengue virus 3 Martinique/1243/1999): 7.09

QTNTKATGK
pIC50 (HLA-A*03:01 [4]; [21]): 4.85 | pIC50 (HLA-A*11:01 [5]; [21]): 5.66

RGSWATSSF
pKd (HLA-B*15:03): 7.95

RKYSDLVPK
pIC50 (HLA-A*03:01 [4]; [21]): 4.31 | pIC50 (HLA-A*11:01 [5]; [21]): 5.38

RSLIIVLLF
pKd (HLA-A*30:01): 5.63 | pKd (HLA-A*32:01): 6.52 | pKd (HLA-B*08:01): 6.02 | pKd (HLA-B*15:01 [2]): 6.71 | pKd (HLA-B*15:03): 6.65

SGNRGSTSF
pKd (HLA-B*15:03): 7.60

SLPPNFSSL
pKd (HLA-A*01:01): ≤ 4.70 | pKd (HLA-A*02:01 [9]): 8.03 | pKd (HLA-A*02:03 [10]): 8.52 | pKd (HLA-A*02:11): 7.62 | pKd (HLA-A*02:12): 8.30 | pKd (HLA-A*02:19): 6.91 | pKd (HLA-A*03:01 [11]): ≤ 4.70 | pKd (HLA-A*11:01 [12]): ≤ 4.70 | pKd (HLA-A*24:03): 8.12 | pKd (HLA-A*31:01 [13]): ≤ 4.70 | pKd (HLA-B*07:02 [14]): 5.78 | pKd (HLA-B*15:01 [15]): 6.94 | pKd (HLA-B*27:05): ≤ 4.70 | pKd (HLA-B*40:01): ≤ 4.70 | pKd (HLA-B*58:01): ≤ 4.70

SLPRIALVR
pIC50 (HLA-A*03:01 [4]; source organism: Variola virus): 6.11 | pIC50 (HLA-A*11:01 [5]; source organism: Variola virus): 6.39

SQQNSDSIF
pKd (HLA-B*15:03): 8.73

TKFTDFQDF
pKd (HLA-B*15:03): 8.65

TKTLDISSF
pKd (HLA-B*15:03): 7.26

TYTILNRKA
pIC50 (HLA-A*03:01 [4]; [21]): ≤ 4.02 | pIC50 (HLA-A*11:01 [5]; [21]): ≤ 4.05 | pIC50 (HLA-A*24:02): 4.66

YKVFTDISM
pKd (HLA-B*15:03): 8.66

Source: the Immune Epitope Database (IEDB)
